Earlier results on one substance are cited in paper PMC9477365.

Data set [1] deals with fibrin (E domain site) E domain (Homo sapiens) (UniProt P02671).
Data set [2] deals with fibrin (gamma' site) gamma' chain (Homo sapiens) (UniProt P02671).

Regarding thrombin (from UniProt P00734), the Kd in data set [1] was 2.8 µM; in data set [2], 9 µM.

What is called Kd is a measure of binding affinity in units of concentration.
